Series [1] concerns the target T1, 70K N-terminal domain of FN (Homo sapiens, UniProt P02751).
T1 construct: specifically to the 70K N-terminal domain of FN involved in fibrillogenesis
The conditions noted are these: background statement; cited from earlier work.

In series [2] the test system is bleomycin-induced pulmonary fibrosis. Nature of the series: Bleomycin-induced pulmonary fibrosis model: hydroxyproline and survival. Format: in vivo, mouse. As for the experimental part:
All efforts were made to minimize suffering. The Bleomycin model is a rodent model representing a human equivalent of pulmonary fibrosis with the fibrotic response peaking between 14 and 21 days post-bleomycin installation. To initiate bleomycin injury, mice were anesthetized with ketamine (100 mg/kg) and xylazine (15 mg/kg) prior to delivering a single intratracheal dose of bleomycin (1 U/kg, Teva Pharmaceutical Industries, Ltd) reconstituted in 0.9% Normal Saline (NS) or NS alone as control.
End-points for analysis: On day 14, mice were euthanized and lungs homogenized for hydroxyproline and western blot. Additionally, mouse survival by day 14 was compared between bleomycin PEG-FUD- and bleomycin PEG-mFUD-treated groups using Log-Rank test.
Hydroxyproline assay: Hydroxyproline assay was performed by Dounce homogenizing right lungs in deionized water, hydrolyzing in 6 N HCl for three hours at 120° C., drying for 45 min at 65° C., incubating in citrate-acetate buffer and chloramine-T for 20 min at room temperature, followed by Ehrlich's reagent for 15 min at 65° C. Subsequently, the samples were cooled to room temperature and the absorbance measured at 550 nm. […] Hydroxyproline results were analyzed using Students t-test with Bonferroni post-hoc test, comparing bleomycin- and PEG-FUD-treated mice to those treated with bleomycin and PEG-mFUD.

The conditions of series [3]: UUO kidney ECM fraction, s.c. approximately 12.5 mg/kg daily; extrapolated. As for the experimental part:
Unilateral Ureteral Obstruction model. Male C57BL/6 mice were purchased from Envigo (Madison, Wis.) and housed in the Wisconsin Institutes for Medical Research animal facilities at the University of Wisconsin-Madison with ad-libitum access to food and water. Animals were maintained in humidity and temperature-controlled rooms under 12 h light/dark cycles. All work was conducted under protocol M5421, reviewed and approved by the University of Wisconsin-Madison Institutional Animal Care and Use Committee. All efforts were made to minimize suffering. The Unilateral Ureteral Obstruction (UUO) model is a rodent surgical model representing a human equivalent of […]. Obstruction results in marked dilatation of the ureter together with reduced renal blood flow and glomerular filtration. […]
Tissue extraction and immunoblotting: Kidney tissues were fractionated as described in the art. […] Relative quantitation of specific blotted protein was performed by assessing band intensities using Image J and normalizing to bands obtained with rabbit anti-Histone 3 rabbit IgG (CellSignalTechnology, Danves, Mass., USA) or goat anti-GAPDH-HRP conjugated IgG (Genscript, Piscataway, N.J., USA), which were used as loading controls for ECM or lysate fractions, respectively.

Where no end group is shown, it is not given here.

These results are taken from patent US10828372B2, “Compositions and methods for the inhibition of fibrosis” (WISCONSIN ALUMNI RESEARCH FOUNDATION, priority 2017, dated 2020).

T1 sequence (P02751 32-609 limits assumed): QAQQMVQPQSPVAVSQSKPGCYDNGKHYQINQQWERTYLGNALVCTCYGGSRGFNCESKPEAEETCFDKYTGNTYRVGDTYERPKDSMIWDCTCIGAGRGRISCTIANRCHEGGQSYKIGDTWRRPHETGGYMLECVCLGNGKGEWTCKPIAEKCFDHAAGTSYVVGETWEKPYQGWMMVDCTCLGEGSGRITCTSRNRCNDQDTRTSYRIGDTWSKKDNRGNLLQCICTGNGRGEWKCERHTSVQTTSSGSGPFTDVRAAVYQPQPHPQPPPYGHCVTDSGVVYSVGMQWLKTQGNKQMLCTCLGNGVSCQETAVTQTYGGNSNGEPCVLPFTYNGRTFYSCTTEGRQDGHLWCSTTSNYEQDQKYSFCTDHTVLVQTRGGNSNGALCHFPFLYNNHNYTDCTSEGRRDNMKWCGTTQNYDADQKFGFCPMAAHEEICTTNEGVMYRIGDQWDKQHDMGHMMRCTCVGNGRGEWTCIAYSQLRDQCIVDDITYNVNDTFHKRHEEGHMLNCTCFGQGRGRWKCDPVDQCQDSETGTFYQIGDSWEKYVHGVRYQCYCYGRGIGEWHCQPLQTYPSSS

Consider “FUD: 49 amino acid FUD peptide, SEQ ID NO: 1, recombinantly expressed, His-tag removed; inhibitor of fibronectin fibrillogenesis (KDQSPLAGESGETEYITEVYGNQQNPVDIDKKLPNETGFSGNMVETEDT; human) [reference compound]”, for which the binding affinity entry in series [1] was “nanomolar affinity”.
Regarding “PEG-FUD: PEGylated FUD prepared as in Example 1, PEG size not stated; approximately 27 kDa by mass spectrometry, likely the 20 kDa conjugate (KDQSPLAGESGETEYITEVYGNQQNPVDIDKKLPNETGFSGNMVETEDT; not fully specified (N-terminus); also: PEG size not given here)”, the “survival to the end of the 14-day trial” value in series [2] (bleomycin-treated mice, s.c. 12.5 mg/kg/day day 3-13) stood at 100%. Besides, the “collagen accumulation (hydroxyproline assay, right lung)” value in series [2] (day 14 post-bleomycin, s.c. 12.5 mg/kg/day day 3-13, vs PEG-mFUD) is on record as “significant reduction of collagen accumulation”. In addition, the “PEG-FUD level in kidney” value in series [3] is around 50 ng per mg.
